The numbers were not newly measured in PMC4289615, which cites them from elsewhere.

The data set deals with IL-2Rβγ (intermediate-affinity IL-2 receptor) (Homo sapiens) (UniProt P14784).
Sequence of UniProt P14784 (P14784 27-240, chain 1 of 2): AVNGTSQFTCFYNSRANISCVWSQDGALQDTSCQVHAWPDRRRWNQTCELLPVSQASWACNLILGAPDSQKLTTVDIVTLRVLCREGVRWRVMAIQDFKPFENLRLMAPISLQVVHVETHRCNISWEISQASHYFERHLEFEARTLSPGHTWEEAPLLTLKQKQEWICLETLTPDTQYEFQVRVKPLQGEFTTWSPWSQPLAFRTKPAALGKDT
Sequence of UniProt P14784 (P31785 23-262, chain 2 of 2, further chain): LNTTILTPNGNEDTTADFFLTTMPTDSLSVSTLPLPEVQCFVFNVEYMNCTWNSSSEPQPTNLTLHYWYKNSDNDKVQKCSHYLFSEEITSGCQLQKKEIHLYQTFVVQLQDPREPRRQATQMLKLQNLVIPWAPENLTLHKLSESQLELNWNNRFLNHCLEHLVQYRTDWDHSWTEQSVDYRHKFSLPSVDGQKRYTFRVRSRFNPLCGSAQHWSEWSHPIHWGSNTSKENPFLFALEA

Sequence of IL-2 (P60568 21-153): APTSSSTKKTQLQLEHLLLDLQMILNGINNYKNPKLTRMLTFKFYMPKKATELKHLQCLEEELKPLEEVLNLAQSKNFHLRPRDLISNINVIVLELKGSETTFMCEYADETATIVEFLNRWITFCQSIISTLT

With IL-2 (from UniProt P60568), the Kd (as a rule, the equilibrium constant for the complex coming apart) was 1 nM.
